Reference: the DeepSol protein solubility set

Assay: soluble on expression in E. coli; label from the status in PepcDB or PDB records

| Sequence | soluble on expression in E. coli |
| --- | --- |
| MGSDKIHHHHHHMGNKIYPIGIQNFESLRLDGYFYIDKTALIYQLVKSGRYYFLSRPRRFGKSLLISTLEAYFQGKKELFQGLAMEKLEKDWTKYPILHIDLNTQKYDSPQSLESKLNRTLVTWEKLYGSEPAEDSLSMRFEGTIQRAYEQTGQRVVILVDEYDKPMLQAIGNKELQNSFRETLKAFYGALKSKDGCIKFAMLTGVTKFGKVSVFSDLNNLDDISMWNEYIELCGISEKEIHKNLETELHEFADVQKMTYDSFCEKLRQYYDGYHFTHNSIGMYNPFSLLNAFKRKEFGSYWFETGTPTYLVELLKRHHYNLERMAHEETNAQVLNSIDSESTSPIPVIYQSGYLTIKGYDEEFGIYHLGFPNKEVEEGFIQFLVPYYTSMNNVESPFEI | not soluble |
| MDHYLVPYNQRANHSKPIPPFLLDLDSQSVPDALKKQTNDYYILYNPALPREIDVELHKSLDHTSVVCCVKFSNDGEYLATGCNKTTQVYRVSDGSLVARLSDDSAANKDPENLNTSSSPSSDLYIRSVCFSPDGKFLATGAEDRLIRIWDIENRKIVMILQGHEQDIYSLDYFPSGDKLVSGSGDRTVRIWDLRTGQCSLTLSIEDGVTTVAVSPGDGKYIAAGSLDRAVRVWDSETGFLVERLDSENESGTGHKDSVYSVVFTRDGQSVVSGSLDRSVKLWNLQNANNKSDSKTPNSGTCEVTYIGHKDFVLSVATTQNDEYILSGSKDRGVLFWDKKSGNPLLMLQGHRNSVISVAVANGSSLGPEYNVFATGSGDCKARIWKYKKIAPN | soluble |
| MYLDFYGLHAHPFQLTPDPAFFFGANGHTRAKSYLMFGLSQGEGFVVVTGDVGAGKTTLLSHMLRSLSDRSIRVARLSTTQLSADDTARVVARAFGLAEPAHPSKGAWLEAIEVFLTQVRAAGERCVLIVDEVQNMGFAALEELRMLGNLGIDDGHSALQTILVGQPQFRNTLAGPSLDQLRQRIVASCHLGPIEPEEVGHYMRYRLTQAGWRGDPSFEEAVFPAVYRHSGGLPRRINILCSRLLLAGFLQERHDLRAQDVEEVAAELEAEAGEVIGVAGETRAGARLDGRFIDAGSLADLEERVLGIEERLRKVDLVVRRGLLNFSDFVSELNAVWKGRPLEHHHHHH | not soluble |
| GPGSMPPKKGKKLKKKVKLQVPPQYEEQISKEPVSDPPTSQQSITSLPISVVEAALAVEESPEEDIVTFGAEALNRLLSMRHPQQIAADLTRSLSSLRQRLAQLEMEWLGFESSAVGSTYACRARDQKDKLEHEVRKTEKMTRHLILLGRVLDRIFELRTSVFDTERTAMEAEVEELTKRVEKNDEEIRSCYINRISLLHRYWVWRTLQELGDMTVGRTFAEELARGPRYRSIAIQNRILSDTLERQLEWLQRFLEKEEVFCGRVRQLERFVEEFTDMNDALEEVLTCRVCNLLFEDPVVFWPCGHSFCLQCFDSLSVAPSLFRCPLCGSMGSEGYVHNLLLSESVAKWMFKDACYADVHGALSLVRLHLSKFRRNIISSRMEQLEERLTAERGRELASDTLDDMDIVYRAY | not soluble |
| MAHHHHHHMGKHIRILKNQYLQFMSKRCIQSKAAFNICGKINVENPIVELDGDEMTRIIWKDIKEKLILPYVNLKIKYFDLSIENRDKTNDQVTIEAAEEIKKTSVGIKCATITPDAARVKEFNLKEMWKSPNGTIRNILDGTVFRTPILIKNIPKLVPNWKKPIVIGRHAYADQYKQKSLKIEKSGKFEIVFTPDDNSQVLRETVFHFKSPGVCLGMYNTEESIRNFALSCFQYALDLKMPVYMSTKSTILKIYDGLFKDIFDEIYEKQFKKSFEQHNLWYEHKLIDDMVAQVLKSEGGFLWACKNYDGDIQSDAVAQGYGSLGLMSSVLLCPDGVTCVSEAAHGTVTRHYRAYQKGEKTSTNPIASIFAWTKGLEHRAKLDKNDNLKQFCYALEKACIETVEDGLMSKDLAGCIKGIKNVTEKDYIFTQDLINAINEKLKLKILQNQSKNDPQATSYKLKNDNWNFYAPQEHST | not soluble |
| MGSDKIHHHHHHMQFERISTEQKKLSLIQTFLHQNALKLDEQIEYFVVGYNDNEQIVVCGGLAGNIIKCVAIDESLRGSGVALQLITELVDLAYTLKRPHLFIYTKPEYATLFKSCGFYIISDANPYVVLLENSATRLQKQCSLWEKMRVDGNRIGSIVMNANPFTLGHRYLIEQALQQCDHLHLFIVGEDASQFSYTERFEMIQQGIFDLSNITLHSGSDYIISRATFPNYFLKDQLITDESYFEIDLKLFRLHIAQALGITHRFVGTELNCPVTAEYNRQMHYWLMDAEMNAPKINVIEIPRKTASNHIISASTVRKHLAEKNWAQLAEFVPMTTLNYLQKCGRF | not soluble |
| MSLATIYDVAKAAGVSPKTVSRVLNDDAPVNESTRQAVNEAIAALDYLPSQAARMMRSSRSRLIGLITGAISQEIGPAVQSGLPEMNIVQAIQREMSAQGKILMISDTGGRADAAPVLARTFAQHRVEGLIYVADHHREIEMDLTSGNCPVVLVNCYDAAATPCVLPDDEAGEAALVARLIEAGHRRIGFLPPDRTQPAARLRLDGYRTALAAAGLAYDPDLVAHVHDPDADRARALLTEALDALLSLDAPPSVICCTNDEMAMRLYGLLRSRGLRVPDDISVAGYDDHKTISEMLYPQLTTVVLPYSEMGRQAARLMLELIEGKPLASPGPTLVDGPVVWRSSVTEGHHHHHH | soluble |
| MLEDYAISLEEVNFNDFIVVDVRELDEYEELHLPNATLISVNDQEKLADFLSQHKDKKVLLHCRAGRRALDAAKSMHELGYTPYYLEGNVYDFEKYGFRMVYDDTCDKKN | soluble |
| MGSDKIHHHHHHMTYIALGMAAIGRPHYINIKTIDSPKDLTKAELHAHATAVLDAAYAMGIRHIDTAPGYGIAEEILIDWLRRSGHEDMTVSTKWGYTYTANFEKNPLQHEVKEHSLHVLQQQWLYSRQLLPPLNMYQIHSATSDSGVLNNQGVLDKLFELKEQFGIEIGLTTSGLTQNATIQQALKITNQGKPLFTIFQVTYNVFEQSIADSVALLKNQGARIIIKEGLANGRIFTCADFPQYAPAYALLERLAGKYHVGVDAVALRFCIDALRPLYVLSGAATIVQLKENLLAETFTLQSEELEELKSIHVASEAYWNERKQLKWN | not soluble |
| DPDIQSTVEAMLLDRVDALPPKVSMAVLVMDNDSLEVKAYAGSADFTDDSRYAHVDMVRGVRSPGSTLKPFLYALALDEGLIHSESLLLDAPLSFGGYAPGNFQAAFAGPVSVAQALQRSLNVPAVDLLDRVGPARFASVMLAGGVHLRMPAGAVPNLSLILGGGGTTLEELVGAYRALARGGLSGRPRLRASQPRIEARLMSPGAAWIVRDILELGGHPDRPLFQGAAAGRQLAWKTGTSFGFRDAWAVGVTDRYTIGAWVGRPDGTPNPGFFGANVAAPLLQDIVAALPAGAPVPRT | not soluble |
| GPLGSPLIGEIGPETYSDYMSAGIPLAYIFAETAEERKELSDKLKPIAEAQRGVINFGTIDAKAFGAHAGNLNLKTDKFPAFAIQEVAKNQKFPFDQEKEITFEAIKAFVDDFVAGKIEPSIKSEPIPEKQEG | soluble |
| PSVQVPQSTILYASDGSKLGETNYGEKRYWVPLKDMNPTIVKATVAIEDQNFYDHHGFDYKRMAGAALADLKAFAKVQGASTITQQYARNLYLEHDKTWKRKWNEAFYTIRLEQNYSKDEILEGYLNTIYYGHGAYGIEAASRLYFGKHAKNLTDAEAALLAGIPKGPSGY | not soluble |
| MAFEFKLPDIGEGIHEGEIVKWFIKPGDEVNEDDVLLEVQNDKAVVEIPSPVKGKVLEVLVEEGTVAVVGDTLIKFDAPGYENLKFKGDDHDEAPKAEATPAATAEVVNERVIAMPSVRKYARENGVDIHKVAGSGKNGRIVKADIDAFANGGQAVAATEAPAAVEATPAAAKEEAPKAQPIPAGEYPETREKMSGIRKAIAKAMVNSKHTAPHVTLMDEVDVTELVAHRKKFKAVAADKGIKLTYLPYVVKALTSALREYPMLNTSLDDASQEVVHKHYFNIGIAADTDKGLLVPVVKDTDRKSIFTISNEINDLAGKAREGRLAPAEMKGASCTITNIGSAGGQWFTPVINHPEVAILGIGRIAEKPVVKNGEIVAAPVLALSLSFDHRLIDGATAQKALNQIKRLLNDPQLLVMEA | not soluble |
| MSLKRLIMATMVTAILASSTVWAADNAPVAAQQQTQQVQQTQKTAAAAERISEQGLYAMRDVQVARLALFHGDPEKAKELTNEASALLSDDSTEWAKFAKPGKKTNLNDDQYIVINASVGISESYVATPEKEAAIKIANEKMAKGDKKGAMEELRLAGVGVMENQYLMPLKQTRNALADAQKLLDKKQYYEANLALKGAEDGIIVDSEALFVNEGHHHHHH | soluble |
